Source: the DeepSol protein solubility set

Assay: soluble on expression in E. coli; label from the status in PepcDB or PDB records

Sequence | soluble on expression in E. coli
MGSDKIHHHHHHMIILDRNSYDLLSYLIKLEEPETVMSISKVLNQSRRKVYYHLDKINEALPSEIPKIISYPRIGILLSSQQKAACRTLLADLDDYSYVMSIQERMLLSITYIAIAKDRVTIEKLMQINAVSRNTILNDLNELRQRLSFEPYSIKLQATKSKGYYLDCHPLSKIQYLNKLLHTIYTDSNPNFIAMMRDKLRDFADLSSYFSDDISSFIRGELQVSQALLGKKINSQDIRFMVATLPYQLLSYQNLGLSEREQRDLLSEFSPIKERKEYEIARHLNENLKREFHIELDEIETSLIAVLLLSYRKDRDMHLESHDYDDMRRVLSYFIDAFELDYHVCFKHKQLLLNQLLTHCKALLFRKAYGIVSNNPLTDQIKDKYADLFAMTKVCLSILENAWSIKMNDDDIAYITIHIGGELVHSETKPTPPAVLTLVCDEGIGVQKLFMQQCKQYLPHSKIEAVLTSEQFYSVADIMAVDLVISTNDSLDTQLPTLFVHSILRDDDAIKLIRFAKQRGQTGQDDFDKKLETYIRHYVKNDSDCYVLKTKIEGLINEELLYDNNKR | not soluble
TPPPTQWSYLCHPRVKEVQDEVDGYFLENWKFPSFKAVRTFLDAKFSEVTCLYFPLALDDRIHFACRLLTVLFLIDDVLEHMSFADGEAYNNRLIPISRGDVLPDRTKPEEFILYDLWESMRAHDAELANEVLEPTFVFMRAQTDRARLSIHELGHYLEYREKDVGKALLSALMRFSMGLRLSADELQDMKALEANCAKQLSVVNDIYSYDKEEEASRTGHKEGAFLCSAVKVLAEESKLGIPATKRVLWSMTREWETVHDEIVAEKIASPDGCSEAAKAYMKGLEYQMSGNEQWSKTTR | soluble
MSDPLHVTFVCTGNICRSPMAEKMFAQQLRHRGLGDAVRVTSAGTGNWHVGSCADERAAGVLRAHGYPTDHRAAQVGTEHLAADLLVALDRNHARLLRQLGVEAARVRMLRSFDPRSGTHALDVEDPYYGDHSDFEEVFAVIESALPGLHDWVDERLARNGPS | soluble
MGGSHHHHHHGMASALANEEDDPVVQEIDVYLAKSLAEKLYLFQYPVRPASMTYDDIPHLSAKIKPKQQKVELEMAIDTLNPNYCRSKGEQIALNVDGACADETSTYSSKLMDKQTFCSSQTTSNTSRYAAALYRQGELHLTPLHGILQLRPSFSYLDKADAKHREREAANEAGDSSQDEAEDDVKQITVRFSRPESEQARQRRVQSYEFLQKKHAEEPWVHLHYYGLRDSRSEHERQYLLCPGSSGVENTELVKSPSEYLMMLMPPSQEEEKDKPVAPSNVLSMAQLRTLPLADQIKILMKNVKVMPFANLMSLLGPSIDSVAVLRGIQKVAMLVQGNWVVKSDILYPKDSSSPHSGVPAEVLCRGRDFVMWKFTQSRWVVRKEVATVTKLCAEDVKDFLEHMAVVRINKGWEFILPYDGEFIKKHPDVVQRQHMLWTGIQAKLEKVYNLVKETMPKKPDAQSGPAGLVCGDQRIQVAKTKAQQNHALLERELQRRKEQLRVPAVPPGVRIKEEPVSEEGEEDEEQEAEEEPMDTSPSGLHSKLANGLPLGRAAGTDSFNGHPPQGCASTPVARELKAFVEATFQRQFVLTLSELKRLFNLHLASLPPGHTLFSGISDRMLQDTVLAAGCKQILVPFPPQTAASPDEQKVFALWESGDMSDQDCCVSYGGMWYLKGTVQS | not soluble
SLSRRKPNPVIVADIRQAEGALAEIATIDRKVGEIEAQMNEAIDAAKARASQKSAPLLARRKELEDGVATFATLNKTEMFKDRKSLDLGFGTIGFRLSTQIVQMSKITKDMTLERLRQFGISEGIRIKEDVNKEAMQGWPDERLEMVGLKRRTTDAFYIEINREEVADTAA | soluble
MKRLLFLGVDVGGTKTLAVLSDEQGNVLAIYKGKGANYQVVGKENAVRNLKDVIEAILDRAGKTRKEIDFAFFGYAGADFDYEMKIVREILEKLGLEKFDFDNDGRIALRSGVFDDIGIMVSCGTGSISYASDGRRVNRIGGLSFSLGERLGSHYIASLVTSAVMRAKDGRDDWTTLVDEVEKEIGPVENLLRYDYEGGYTAELVKKVNQALFRCAEKGDAVSLRIFDEIVVEVKKIIDAHRKALNFTPPIKLILEGSFFKNAPSLLINMIESAIGREYEIVIPEHDPVIGAVLFAMERVGLRVTEDLYNRLVRNYLREVKK | soluble
HMAQVFEECVSFINGLPRTINLPNELKLDLYKYYKQSTIGNCNIKEPSAHKYIDRKKYEAWKSVENLNREDAQKRYVDIVSEIFPYWQD | soluble
MGSDKIHHHHHHAQETIPDVEVSTMDMWVKETRSVSEYLNMPVLHFKDEQVYSETLRQLKNMTENERFTYFQQLGFEGAYILWEQADRELDKIFDMESDDSHLIQEMINTYKDKYSDIFSFNTVDLFDVTPYFTFTDNDLSLLGNIKGYVVIGNSLRGPKYDYPTYDLDEVVSATRAAEPTPIEPGFKGFKDASLTIKNGKYKSTMTIGRIVNGNSFAVEFKTKKKQLFWKKSVKAGYSAMLTMKSSKFNYKNTVFCPYGKEVSILNLPIERVGNVFDAVVENFKSSRGDAKGNQSFHNIRVI | not soluble
MGSDKIHHHHHHMSPHDAKSVIRRFVKEVLNDKNLAVIDEICPPDYVELDPLPGQGPGAAGLKAFLGESFFKAFPDLVWVNEEMVAEGEYVMARSTWTGTHRGEFLGIPPTHRAVKVAAWTIDHVVDGKFVDSRILVDALSLLQQLGALPAWPPPPKTFQAMVDAAYRSVPTIKAADLHRRLKREPDLLIIDVRDAAEVAQTGAIPGAINLSYGTLTYAADHTAPEDWRDPRLADHARPIVTTCGLGPLGALGGGLLHEMGFTNVQILEGGVQAWIDAGLPVVKPGDQ | not soluble
MNQTAAFSEVEMSIVVPKESDIKDVSQLTSVQAPTKVDKNNIEILMSALKKDKKVDVKVDDVASYQEAYDNLKSGKSKAMVLSGSYASLLESVDSNFASNLKTIYTYKIKKKNSNSANPVDSKVFNIYISGIDTYGPISTVSRSDVNIIMTVNMNTHKILLTTTPRDAYVKIPGGGADQYDKLTHAGIYGVETSEQTLEDLYGIKIDYYARINFTSFLKLIDQLGGVTVHNDQAFTQGKFDFPVGDIQMNSEQALGFVRERYNLDGGDNDRGKNQEKVISAILNKLASLKSVSNFTSIVNNLQDSVQTNMSLDTINALANTQLDSGSKFTVTSQAVTGTGSTGQLISYAMPNSSLYMMKLDNSSVASASQAIKNLMEEKLEHHHHHH | soluble
MGSDKIHHHHHHMIVALIIHRPLTKRQKMVAYDVEQLEGKVRGALLQGTNSGKTGVIVLGGSSGRVDTTRAGLFANTGARALALQWFGGANQPPGICEIPLETFVDATDLLISRGCDRTVFVGTSKGAEAALLASTIDHRINVVIAISPSSVVLGNIGAGVDGISWPERSSWSFKRSPLDFVPADINWQKDYRDGLVSYRSFFEKCLSNDVQLNERARIPVESSPADLILVAGGDDALWPSGYFARQILQSRQAHGRQATLIFDKDAGHRILLPGETTQRSKLHAHGGSDEADAKLGQNAWRAIRELL | not soluble
MGSDKIHHHHHHMNLAGAQLTENELMRLTVSNIAQATSLPALIQEHGRWCCQRCGDRKPVQLPDGRFYCSACVSLGCLTNRDLLYRFEQPHRPVGDGLLTWHGTLTPAQQKASTALQTSVTAGADHLIWAVTGAGKTEMLFPTISQMVQQGKRVAIVSPRIDVIRELAPRLRTAFATTPIAVRYGGHFDQTDSDLVLATVHQLLRFHRAFDLIVVDEVDAFPMAGTPMLHRAVQGARRGPVVYLTATPDRPLKAAMRKGLMVSRLFRRFHGHPLPVPAIRLMNFKKLPSQLPPAIVKWVRDVVATGRSCLLFVPKISWAPQIAALVQRNGLRVAGVASTDRLRAEKITAFRQRQIQVLVTTTILERGVTVSKCAVGVVAAADRAFTASALVQIAGRAGRAADSADDPVVFFTDRYTLALLAAKRQIVMMNGR | not soluble
MGSDKIHHHHHHMINAKNIRFSYPRQRSLFESLNLDLPKGSITGLLGRNGEGKTTLLKLLCGQLLRKDGNLTVLTEDPRHRSVKFLSKVFLLQEEVTCPNVSIRDYFRMITPFYPSYSPEVAQEIIIAFDLNWDMKLGKVSQGQKKKAVIALALSLRTPLLLMDEPTNGLDIPSKSAFRRLMARYITEEQTVIISTHQVRDLEQIIDRIVMMDKNAIVCNRSVAELSEQFAFRQVVPGDKPIYKEGSTMGEVGVYENTTGEETPFSMELFFNGMIAEREVFNRVLNR | not soluble
